Measurements taken from the supplement of paper PMC10567573.

B1: KCNK9 (parent)
chain: DVPDLQSVCSCTCYRSQDYGGRSV
B2: UFD1L (parent)
chain: EAGGRFVAFSGEGQSLRKKGRKP

Variants of: B1
Assay: protein stability index of a GFP-peptide fusion (GPS, HEK-293T) (PSI 1-6); higher = more stable
Details: c terminus: a fixed tail appended
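Note: lentivirally expressed fusions sorted by FACS into six bins by GFP to DsRed ratio, PSI derived from sequencing read proportions per bin multiplied by bin number.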

Protein stability index, by site and new letter:
V8: D 2.8; M 1.06; Q 2.42; K 1.68; L 1.59; E 2.24; N 2.5; P 1.77; G 3.36; A 2.8; H 1.57; Y 1.86; W 1.29; T 1.72; F 2.22; S 2.06; I 2; R 2.29
C11: K 3.05; N 3.21; H 2.02; S 3.3; T 2.81; Y 3.6; F 2.06; M 2.13; E 4.65; P 3.8; R 2.34; W 2.59; Q 2.59; L 2.52; V 2.46; D 4.15; I 2.39
D4: E 2.06; M 2.28; N 2.07; S 1.86; I 2.81; L 1.75; P 2.05; Y 2.86; C 1.64; T 2.48; Q 3.18; G 1.45; F 1.4; K 2.17
D1: P 2.33; S 2.29; L 2.59; I 1.33; H 3.67; N 1.29; A 1.54; E 1.44; K 2.23; Q 2.87; M 1.54; C 1.04; T 1.86; V 1.51; R 1.62; G 1.26
V2: M 2.31; T 2.57; N 2.7; H 1.67; K 2.43; F 1.69; R 2.2; Q 1.59; P 1.55; W 1.68; D 1.78; Y 1.82; G 1.5; S 2.19; I 1.78; E 2.93; A 1.84; C 2.07
T12: F 2.76; G 1.52; E 2.4; A 1.78; C 1.21; D 2.79
S10: T 2.47; D 2.79; E 2.16; F 1.26; L 2.39; K 1.76; A 1.66; Y 1.92; H 1.43; N 1.47; P 1.52; R 1.33; Q 2.25
P3: H 1.8; W 1.33; M 2.11; Q 1.93; C 2.14; Y 1.4; K 1.12; T 1.73; D 1.36; N 1.45; A 1.34; E 2; G 1.41; I 2.22; S 1.99
Q6: Y 4.08; G 1.63; K 1.98; V 1.97; R 2.73; I 2.39; C 2.56; N 1.82; E 1.3; W 2.57; S 1.59; T 1.85; D 2.27; M 2.61; H 1.88; P 1.5; A 1.65; L 3.01
C9: E 2.37; M 2.06; H 1.71; N 2.66; F 2.01; L 2.16; V 2.18; G 1.75; K 2.29; D 3.26; T 1.89; A 2.7; S 3.05; P 1.67; Y 1.82; Q 2.03; I 2.38
S7: P 1.46; W 2.48; H 1.92; Q 2.29; K 1.96; D 2.2; C 1.66; N 1.38; T 2.03; V 1.56; M 1.84; I 2.29; G 1.81; Y 2.07; F 2.32; R 1.57; A 1.64; E 1.81
L5: P 2.64; G 1.65; I 2.54; S 1.41; R 1.77; Y 1.71; K 1.9; N 2.19; V 2.4; E 3.6; F 2.15; A 1.63; C 1.83; T 2.12; M 1.79; Q 2.38; D 2.42; W 1.71; H 1.82

Variants of: B2
Assay: as above
Details: c terminus: native

Protein stability index of substitutions, site by site:
L16: M 1.65; Y 2.51; C 2.79; P 1.18; Q 2.72; D 3.34; V 2.98; S 3.42; R 2.64; E 2.53; N 2.61; W 1.03; T 2.18
Q14: S 2.5; R 2.51; F 2.93; D 1.26; A 1.83; G 2.12; C 3.07; E 1.58; N 2.02; V 2.4
G11: S 1.54; N 1.82; L 1.85; C 2.52; P 2.21; A 1.26
K19: R 1.68; G 3.02; D 1.74; Q 2.05; P 1.07; C 2.4; E 1.58; T 3.08; A 3.83
G20: S 2.12; D 2.12; E 2.78; H 3.25; Q 3.83; N 1.82; P 4.77; M 1.57; V 2.53; L 2.04; K 4.63; A 3.91; W 1.81
K22: T 1.45; G 2.15; D 2; I 2.43; F 2.77; N 2.93
G13: K 2.03; T 1.23; A 2.22; L 2.52; Q 1.16; P 2.73; S 1.9; I 1.28; N 1.55; V 2.38; R 1.35
S15: L 2.95; A 2.2; R 2.45; G 2.42; V 1.72; H 2.1; Y 2.91; T 1.84; D 1.87; P 2.16
P23: L 3.73; C 3.15; I 3.95; V 4.09; S 3.2; N 2.62; Q 4.65; W 5.5; K 4.87; M 2.85; Y 3.01
R17: K 2.88; G 2.95; H 2.2; M 2.25; C 1.48; T 2.03; D 3; L 2.18; N 3.46; S 2.73
S10: I 1.72; T 1.77; D 2.36; K 1.4; P 2.83; N 2.98; Q 3.48; A 1.38
A8: T 1.77
R21: N 5.27; V 4.06; Y 4.7; C 3.45; S 2.83; T 4.35; K 5; M 4.38; Q 5.19; L 2.88; P 4.98; I 3.99; G 5.2; A 4.78
F9: W 2.96; V 2.02; Q 2.25; H 1; I 1.19; A 3.29; T 2.28; R 3.73; K 1.75; P 3.64; E 4.02
K18: R 1.48; Q 1.87; V 1.39; I 3.76; F 2.3; H 1.24; C 2.11; T 1.97; D 2.01; E 1.49
E12: K 1.69; T 3.41
